Results published in US20190062420A1 (Janssen / Centocor, published 2019).

T1: human FcγRIIB (NM_004001) expressed on cells (human, UniProt P31994 43-310)
T1 sequence: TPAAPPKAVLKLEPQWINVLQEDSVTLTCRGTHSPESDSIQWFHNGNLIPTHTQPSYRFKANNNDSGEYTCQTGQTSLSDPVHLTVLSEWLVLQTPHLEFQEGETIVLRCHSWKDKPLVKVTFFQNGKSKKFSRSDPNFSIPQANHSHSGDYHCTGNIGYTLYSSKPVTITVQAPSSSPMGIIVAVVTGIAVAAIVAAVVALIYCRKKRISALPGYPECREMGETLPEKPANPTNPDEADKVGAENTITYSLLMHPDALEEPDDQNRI

T2: FcγRIIA protein (human, UniProt P12318 36-217, biotinylated (SureLINK Biotin Kit) in the ELISA of Example 1)
T2 construct: Soluble/recombinant antigen used in ELISA; also called bt-FcγRIIA; recombinant FcγRIIA protein
T2 sequence: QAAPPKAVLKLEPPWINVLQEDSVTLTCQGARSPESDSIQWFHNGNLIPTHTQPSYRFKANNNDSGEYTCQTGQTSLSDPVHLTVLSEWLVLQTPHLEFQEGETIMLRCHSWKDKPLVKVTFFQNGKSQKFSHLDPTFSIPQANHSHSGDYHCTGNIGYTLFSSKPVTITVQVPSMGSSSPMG


Experiments:
[1] = molecular target: T1, human FcγRIIB (NM_004001) expressed on …; assay: cell-based or functional assay
[2] = molecular target: T1, human FcγRIIB (NM_004001) expressed on …; assay: flow cytometry; Expi293F cells transfected with FcγRIIB
Experimental: (§1) Plasmids expressing cDNAs encoding human FcγRI (NM_000566) (SEQ ID NO: 44), FcγRIIA (NM_021642) (SEQ ID NO: 2), FcγRIIB (NM_004001) (SEQ ID NO: 3), and FcγRIIIA (NM_000569) (SEQ ID NO: 45) (Origene) were transiently transfected into Expi293F cells by ExpiFectamine293 transfection kit (Life Technologies). Flow cytometry assays were performed 48 h after transfection.
(§2) 2×10⁵ cells per well were seeded in 96-well plate and blocked in BSA Stain Buffer (BD Biosciences, San Jose, USA) for 30 min at 4° C. Cells were incubated with test mAbtyrin on ice for 1.5 h at 4° C. After being washed twice with BSA stain buffer, the cells were incubated with R-PE labeled anti-human or anti-mouse IgG secondary antibody (Jackson Immunoresearch Laboratories) for 45 min at 4° C. The cells were washed twice in stain buffer and then resuspended in 150 μL of Stain Buffer containing 1:200 diluted DRAQ7 live/dead stain (Cell Signaling Technology, Danvers, USA). PE and DRAQ7 signals of the stained cells were detected by Miltenyi MACSQuant flow cytometer (Miltenyi Biotec, Auburn, USA) using B2 and B4 channel respectively. Live cells were gated on DRAQ7 exclusion and the geometric mean fluorescence signals were determined for at least 10,000 live events collected. FlowJo software (Tree Star) was used for analysis. Data was plotted as the logarithm of antibody concentration versus mean fluorescence signals. Nonlinear regression analysis was performed by GraphPad Prism 6 (GraphPad Software, Inc.) and EC₅₀ values were calculated.

[3] = molecular target: T3, human FcγRIIIA (NM_000569) expressed on cells (human, UniProt P08637 17-254); assay: flow cytometry; Expi293F cells transfected with FcγRIIIA
T3 construct: Transiently expressed on Expi293F cells; also used here for FcγRIIIA on the engineered effector cells of the ADCC reporter bioassay (Promega); also called FcγIIIA
Experimental: as §1, §2

[4] = molecular target: T1, human FcγRIIB (NM_004001) expressed on …; assay: flow cytometry; Raji cells (express predominantly FcγRIIB)
[5] = molecular target: T1, human FcγRIIB (NM_004001) expressed on …; assay: cell-based or functional assay; remark: listed apart in the source
FcγRIIA protein = molecular target: T2, FcγRIIA protein; assay: ELISA; FcγRIIA protein coated on plate, anti-human IgG-HRP detection
Experimental: Effect of the mAbtyrins on T cell activation was evaluated. Briefly, recombinant FcγRIIB or FcγRIIA protein was coated on the plate to provide the crosslinking activity. For T cell activation assay, 100 μL of 30 ng/mL anti-CD3 antibody (OKT3) and 1 μg/mL FcγRIIB or FcγRIIA protein in DPBS were coated in U-bottomed 96-well tissue culture plate overnight. CD4 positive T cells were isolated from PBMC by negative selection. OX40 expression was induced by culturing the isolated T cells in the presence of 1 μg/mL PHA overnight. On the assay day, the coating solution in the plate were aspirated and 150 μL RPMI media was added to block the plate. The cultured T cells were washed three times by RPMI culture media and between 25,000 to 50,000 CD4 positive T cells were seeded in each well in the assay plate. Test mAbtyrins were added to the cells and the plate was incubated for 3 days. T cell activation was assessed by the induction of IFNγ or TNFα production, which was quantitated by human IFNγ or TNFα ELISA detection kit (Biolegend). Prior to T cell activation assay, the binding affinity of mAbtyrins to immobilized FcγRIIB or FcγRIIA protein were evaluated by an ELISA assay. […] The binding of mAbtyrins to immobilized FcγRIIB or FcγRIIA protein were detected by HRP-conjugated anti-Human IgG(γ) secondary antibody and quantitated by ELISA assay using TMB substrate.

T3 sequence (P08637 17-254 limits assumed): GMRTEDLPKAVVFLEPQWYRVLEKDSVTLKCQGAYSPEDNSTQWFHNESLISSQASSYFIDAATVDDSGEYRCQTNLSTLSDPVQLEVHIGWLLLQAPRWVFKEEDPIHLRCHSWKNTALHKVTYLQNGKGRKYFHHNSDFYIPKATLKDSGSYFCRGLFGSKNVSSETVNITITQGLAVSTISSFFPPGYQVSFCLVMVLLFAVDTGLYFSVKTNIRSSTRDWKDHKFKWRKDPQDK

fold of agonism enhancement upon crosslinking (Daudi cells) [1] | EC50 [2] | EC50 [3] | fold binding signal over OX40SF2IgG2sigma at 10 µg/mL [4] | % activity at 1 µg/ml with Raji cells (HEK-Blue: OX40 NF-κB reporter, relative to 1 µg/ml OX40 ligand) [5] | fold of agonism enhancement upon crosslinking (Raji cells) [5] | binding result (FcγRIIA protein) | Binder
45 fold | 1.52 µg/mL | > 10 µg/mL | ≥ 6 fold | 86% | 15 fold |  | OX40SF2IgG2sigma_R2BS29_HC-C (bispecific antibody, mAbtyrin: anti-OX40 antibody OX40SF2, effector silent IgG2sigma, with linker and R2BS29 FN3 domain at the C-terminus of the heavy chain; also called mAbtyrin) heavy: QVQLVQSGAEVKKPGSSVKVSCKASGYTFKDYTMHWVRQAPGQGLEWIGGIYPNNGGSTYNQNFKDRVTLTADKSTSTAYMELSSLRSEDTAVYYCARMGYHGPHLDFDVWGQGTTVTVSSASTKGPSVFPLAPCSRSTSESTAALGCLVKDYFPEPVTVSWNSGALTSGVHTFPAVLQSSGLYSLSSVVTVPSSNFGTQTYTCNVDHKPSNTKVDKTVERKCCVECPPCPAPPAAASSVFLFPPKPKDTLMISRTPEVTCVVVDVSAEDPEVQFNWYVDGVEVHNAKTKPREEQFNSTFRVVSVLTVLHQDWLNGKEYKCKVSNKGLPSSIEKTISKTKGQPREPQVYTLPPSREEMTKNQVSLTCLVKGFYPSDIAVEWESNGQPENNYKTTPPMLDSDGSFFLYSKLTVDKSRWQQGNVFSCSVMHEALHNHYTQKSLSLSPGKGGGGGSGGGGSGGGGSGGGGSLPAPKNLVVSRVTEDSARLSWTAPDAAFDSFPIYYWEYRVGGEAIVLTVPGSERSYDLTGLKPGTEYFVYINGVKGGEESRPLSAIFTT light: DIQMTQSPSSLSASVGDRVTITCKASQDVGAAVAWYQQKPGKAPKLLIYWASTRHTGVPSRFSGSGSGTDFTLTISSLQPEDFATYYCQQYINYPLTFGGGTKVEIKRTVAAPSVFIFPPSDEQLKSGTASVVCLLNNFYPREAKVQWKVDNALQSGNSQESVTEQDSKDSTYSLSSTLTLSKADYEKHKVYACEVTHQGLSSPVTKSFNRGEC
 |  | 0.339 µg/mL |  |  |  |  | OX40SF2IgG1 (antibody, Anti-OX40 antibody, wild-type IgG1; control without FN3 domain) heavy: not shown light: DIQMTQSPSSLSASVGDRVTITCKASQDVGAAVAWYQQKPGKAPKLLIYWASTRHTGVPSRFSGSGSGTDFTLTISSLQPEDFATYYCQQYINYPLTFGGGTKVEIKRTVAAPSVFIFPPSDEQLKSGTASVVCLLNNFYPREAKVQWKVDNALQSGNSQESVTEQDSKDSTYSLSSTLTLSKADYEKHKVYACEVTHQGLSSPVTKSFNRGEC
1 fold |  |  |  | 2.2% | 1 fold | no binding | OX40SF2IgG2sigma (antibody, Anti-OX40 antibody, IgG2 sigma isotype (effector silent Fc: V234A, G237A, P238S, H268A, V309L, A330S, P331S against wild type IgG2); control without FN3 domain; also called parental antibody; parental OX40 antibody) heavy: QVQLVQSGAEVKKPGSSVKVSCKASGYTFKDYTMHWVRQAPGQGLEWIGGIYPNNGGSTYNQNFKDRVTLTADKSTSTAYMELSSLRSEDTAVYYCARMGYHGPHLDFDVWGQGTTVTVSSASTKGPSVFPLAPCSRSTSESTAALGCLVKDYFPEPVTVSWNSGALTSGVHTFPAVLQSSGLYSLSSVVTVPSSNFGTQTYTCNVDHKPSNTKVDKTVERKCCVECPPCPAPPAAASSVFLFPPKPKDTLMISRTPEVTCVVVDVSAEDPEVQFNWYVDGVEVHNAKTKPREEQFNSTFRVVSVLTVLHQDWLNGKEYKCKVSNKGLPSSIEKTISKTKGQPREPQVYTLPPSREEMTKNQVSLTCLVKGFYPSDIAVEWESNGQPENNYKTTPPMLDSDGSFFLYSKLTVDKSRWQQGNVFSCSVMHEALHNHYTQKSLSLSPGK light: DIQMTQSPSSLSASVGDRVTITCKASQDVGAAVAWYQQKPGKAPKLLIYWASTRHTGVPSRFSGSGSGTDFTLTISSLQPEDFATYYCQQYINYPLTFGGGTKVEIKRTVAAPSVFIFPPSDEQLKSGTASVVCLLNNFYPREAKVQWKVDNALQSGNSQESVTEQDSKDSTYSLSSTLTLSKADYEKHKVYACEVTHQGLSSPVTKSFNRGEC
